Ends that are not written are not given here.
T1: OmpF on E. coli cells (E. coli (endogenous in JW2203-1, …, UniProt P02931 23-362))
T1 sequence (looked up): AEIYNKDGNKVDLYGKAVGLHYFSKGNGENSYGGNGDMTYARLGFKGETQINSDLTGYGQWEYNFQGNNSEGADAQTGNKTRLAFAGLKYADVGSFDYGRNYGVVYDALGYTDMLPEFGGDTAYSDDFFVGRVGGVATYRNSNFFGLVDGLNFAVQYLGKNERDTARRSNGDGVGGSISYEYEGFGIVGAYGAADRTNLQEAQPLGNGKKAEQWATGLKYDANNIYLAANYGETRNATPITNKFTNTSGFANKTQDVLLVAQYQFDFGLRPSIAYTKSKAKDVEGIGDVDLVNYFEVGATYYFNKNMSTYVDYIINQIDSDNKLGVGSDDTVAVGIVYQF

B1: ColN^1-185 (ColN without the pore forming domain) (domain or fragment)
chain: MGSNGADNAHNNAFGGGKNPGIGNTSGAGSNGSASSNRGNSNGWSWSNKPHKNDGFHSDGSYHITFHGDNNSKPKPGGNSGNRGNNGDGASAKVGEITITPDNSKPGRYISSNPEYSLLAKLIDAESIKGTEVYTFHTRKGQYVKVTVPDSNIDKMRVDYVNWKGPKYNNKLVKRFVSQFLLFRK
B2: ColN^1-185-mCherry (domain or fragment)
chain: B1 chain
notes: also called fluorescently labeled ColN
B3: OmpF (natural protein, E. coli (endogenous in B^E3000), UniProt P02931 23-362, looked up)
chain: T1 sequence (looked up)
notes: also called OmpF trimer; purified OmpF lacking LPS
B4: ColN^91-185 (ColN central domain) (domain or fragment)
chain: SAKVGEITITPDNSKPGRYISSNPEYSLLAKLIDAESIKGTEVYTFHTRKGQYVKVTVPDSNIDKMRVDYVNWKGPKYNNKLVKRFVSQFLLFRK
notes: also called ColN-R
B5: ColN^2-19 peptide (peptide)
peptide: GSNGADNAHNNAFGGGKN-NH2
notes: also called ColN-OBS; ColN OBS; source: synthetic peptide, bought: Activotec

Legend:
[1] = biological target: B3; assay: ITC; MicroCal ITC200, 25 C, 20 mM potassium phosphate pH 6.5, 1% beta-OG; purified OmpF trimer without LPS in the cell, ColN construct or peptide in the syringe; details: both partners purified
[2] = biological target: B3; assay: ITC; details: one partner purified
[3] = biological target: T1, OmpF on E. coli cells; assay: widefield fluorescence microscopy of labelled cells; details: one partner purified
[4] = biological target: the molecule itself; assay: native MS; 10 uM OmpF and 10 uM ColN in 100 mM ammonium acetate pH 6.9, 1% beta-OG, trypsin 37 C 2 h, gel filtration, OmpF fractions analysed in 200 mM ammonium acetate, 1% beta-OG

Binder: B1
- Kd [1]: 214 nM
- dH [1]: -27.7 kcal/mol
- stoichiometry N [1]: 2.69 ColN^2-185/OmpF
- Kd [2]: 119 nM
- dH [2]: -38.8 kcal/mol

Binder: B2
- binding to cells with OmpF and OmpC (BW25113) relative to OmpF-only cells [3]: ~0.5 fold

Binder: B3
- stoichiometry N [4]: 3

Binder: B4
- Kd [1]: 14000 nM
- dH [1]: -3.8 kcal/mol
- stoichiometry N [1]: 3.82 ColN^90-185/OmpF

Binder: B5
- Kd [1]: 1400 nM
- dH [1]: -17.9 kcal/mol
- stoichiometry N [1]: 3.67 peptide/OmpF
